Experimental data from article PMC3433420, “Comprehensive Binary Interaction Mapping of SH2 Domains via Fluorescence Polarization Reveals Novel Functional Diversification of ErbB Receptors” (PLoS ONE, 2012).
Values joined by “and” are separate entries in the source; they are usually repeats but may differ in a detail not shown here. Identical values can stand only once. Non-standard residues stand in square brackets, D forms with d. No end group written: not given here. pY = N[C@@H](Cc1ccc(OP(=O)(O)O)cc1)C(=O)O; Rhodamine = not defined here

What was measured:
Assay in all cases: peptide or protein array; SH2/PTB proteins spotted on aldehyde slides, rhodamine peptide titrated in buffer B (20 mM HEPES, 100 mM KCl, 0.1% Tween-20, 5 mM DTT, pH 7.8), 1 h at room temperature; replicate assays
Conditions in all cases: both partners purified
DAPP1 SH2 domain = biological target: T1, DAPP1 SH2 domain (human, UniProt Q9UN19 35-129)
T1 construct: DAPP1, human; source: bacterial expression, purified
T1 sequence (looked up): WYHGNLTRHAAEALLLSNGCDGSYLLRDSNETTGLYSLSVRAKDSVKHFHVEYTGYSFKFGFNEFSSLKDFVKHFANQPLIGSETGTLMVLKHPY

PLCG2 tandem SH2 domains = biological target: T2, PLCG2 tandem SH2 domains (human)
T2 construct: PLCG2, human; also called PLCG2-NC; source: bacterial expression, purified
T2 sequence (P16885 whole entry, looked up): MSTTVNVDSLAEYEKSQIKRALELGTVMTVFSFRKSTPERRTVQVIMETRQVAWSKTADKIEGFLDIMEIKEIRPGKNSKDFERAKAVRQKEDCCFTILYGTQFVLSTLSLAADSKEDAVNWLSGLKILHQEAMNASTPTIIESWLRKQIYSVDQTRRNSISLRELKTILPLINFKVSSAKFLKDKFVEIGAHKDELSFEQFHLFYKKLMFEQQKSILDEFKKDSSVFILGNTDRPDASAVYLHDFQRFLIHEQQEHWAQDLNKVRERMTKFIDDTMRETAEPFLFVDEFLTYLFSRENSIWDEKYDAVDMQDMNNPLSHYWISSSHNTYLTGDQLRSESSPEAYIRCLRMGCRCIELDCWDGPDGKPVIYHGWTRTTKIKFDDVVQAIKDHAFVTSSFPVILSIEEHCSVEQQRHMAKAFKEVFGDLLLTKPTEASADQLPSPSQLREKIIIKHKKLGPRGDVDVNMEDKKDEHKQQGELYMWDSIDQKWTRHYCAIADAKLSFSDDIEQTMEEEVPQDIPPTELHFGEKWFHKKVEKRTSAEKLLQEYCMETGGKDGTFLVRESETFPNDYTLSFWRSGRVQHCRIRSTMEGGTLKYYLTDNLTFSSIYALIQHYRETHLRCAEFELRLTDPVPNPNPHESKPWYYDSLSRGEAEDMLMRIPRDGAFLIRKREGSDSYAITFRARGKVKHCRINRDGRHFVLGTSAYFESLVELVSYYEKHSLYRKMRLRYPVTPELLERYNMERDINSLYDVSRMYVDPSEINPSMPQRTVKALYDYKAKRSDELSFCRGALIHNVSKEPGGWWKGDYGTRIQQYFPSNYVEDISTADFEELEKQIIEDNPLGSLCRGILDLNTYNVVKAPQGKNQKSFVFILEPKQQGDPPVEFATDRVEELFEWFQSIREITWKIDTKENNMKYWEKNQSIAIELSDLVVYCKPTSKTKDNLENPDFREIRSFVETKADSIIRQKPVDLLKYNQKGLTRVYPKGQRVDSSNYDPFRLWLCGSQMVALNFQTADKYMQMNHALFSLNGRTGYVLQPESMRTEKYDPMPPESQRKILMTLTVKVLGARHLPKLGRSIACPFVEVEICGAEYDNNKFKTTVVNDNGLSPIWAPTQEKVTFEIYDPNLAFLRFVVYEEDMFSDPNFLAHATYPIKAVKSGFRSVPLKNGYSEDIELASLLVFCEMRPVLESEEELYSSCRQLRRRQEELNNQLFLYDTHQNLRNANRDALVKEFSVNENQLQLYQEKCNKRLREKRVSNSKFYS

SH2B3 SH2 domain = biological target: T3, SH2B3 SH2 domain (human, UniProt Q9UQQ2 364-462)
T3 construct: SH2B3, human; source: bacterial expression, purified

SH2D2A SH2 domain = biological target: T4, SH2D2A SH2 domain (human, UniProt Q9NP31 95-186)
T4 construct: SH2D2A, human; source: bacterial expression, purified

BLNK SH2 domain = biological target: T5, BLNK SH2 domain (human, UniProt Q8WV28 346-453)
T5 construct: BLNK, human; source: bacterial expression, purified
T5 sequence (looked up): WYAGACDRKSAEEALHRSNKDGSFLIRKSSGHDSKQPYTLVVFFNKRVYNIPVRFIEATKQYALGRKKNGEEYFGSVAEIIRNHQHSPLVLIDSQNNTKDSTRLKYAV

SH3BP2 SH2 domain = biological target: T6, SH3BP2 SH2 domain (human, UniProt P78314 457-555)
T6 construct: SH3BP2, human; source: bacterial expression, purified
T6 sequence (looked up): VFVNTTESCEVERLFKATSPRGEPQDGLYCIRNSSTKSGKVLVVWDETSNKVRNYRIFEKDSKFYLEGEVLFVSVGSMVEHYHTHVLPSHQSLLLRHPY

SHF SH2 domain = biological target: T7, SHF SH2 domain (human, UniProt Q7M4L6 323-418)
T7 construct: SHF, human; source: bacterial expression, purified
T7 sequence (looked up): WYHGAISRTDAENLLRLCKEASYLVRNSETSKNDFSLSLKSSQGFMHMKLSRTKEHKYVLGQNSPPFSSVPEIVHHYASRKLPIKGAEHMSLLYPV

T3 sequence (Q9UQQ2 364-462): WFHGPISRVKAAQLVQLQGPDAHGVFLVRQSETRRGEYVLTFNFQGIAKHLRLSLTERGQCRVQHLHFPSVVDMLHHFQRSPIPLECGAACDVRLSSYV
T4 sequence (Q9NP31 95-186): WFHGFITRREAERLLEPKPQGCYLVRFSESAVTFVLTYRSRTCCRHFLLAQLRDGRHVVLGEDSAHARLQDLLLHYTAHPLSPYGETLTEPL

For Rhodamine-ETDG[pY]VAPLTCSD (reading uncertain) [ErbB2 pY1127 phosphopeptide, rhodamine-labelled, for protein microarrays], the Kd (DAPP1 SH2 domain) was 2670 nM, the Kd (PLCG2 tandem SH2 domains) was 578 nM and 1600 nM and the Kd (SH2B3 SH2 domain) was 1380 nM and 2300 nM. The Kd (SH2D2A SH2 domain) was 2750 nM, the Kd (BLNK SH2 domain) was 1950 nM and 1250 nM and the Kd (SH3BP2 SH2 domain) was 1140 nM and 2860 nM. For the same binder, the Kd (SHF SH2 domain) was 1020 nM.
